± gives the standard deviation of the averaged measurements.
These sequences were tested on Saccharomyces cerevisiae (assay: protein stability index of tFT-peptide fusion (C-terminal peptide) (PSI (0-1 scale)); higher = more stable (slower turnover)). Settings: genetic background: wild type; temperature: 30 C.
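Note: PSI is a weighted mean of sequencing reads over stability bins, variants kept only with over 10 reads, mCherry proximal and sfGFP distal, peptide attached via GGGS linker.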

Sequence | protein stability index
SISYSNLPSLFF | 0.75 ± 0.051
SIVESRGRGFRL | 0.697 ± 0.18
SIVFFLPPVSSS | 0.724 ± 0.089
SIWVLLVPRQSI | 0.639 ± 0.11
SKDVLPGDDNVI | 0.656 ± 0.073
SKFNSLNNHRKG | 0.655 ± 0.033
SKKDMWMFVGEG | 0.722 ± 0.032
SKLAVWVGERGF | 0.759 ± 0.02
SKLTKQQKRTKS | 0.665 ± 0.055
SKLVSPGVPRTP | 0.78 ± 0.043
SKNLKQTQKKKT | 0.808 ± 0.069
SKPEEAGADLSD | 0.6 ± 0.086
SKPPLPTRLPRP | 0.7056 ± 0.0032
SKRQQQKITAQE | 0.67 ± 0.086
SKTQRKQIIKKQ | 0.638 ± 0.056
SLASSLHTYDLT | 0.661 ± 0.032
SLDQRPSLSFKR | 0.663 ± 0.015
SLFFFLFSPSCL | 0.691 ± 0.075
SLFFSTVELFFV | 0.6707 ± 0.0053
SLFPQIFFFFFA | 0.498 ± 0.0099
SLFSPSQLQSFS | 0.718 ± 0.012
SLGRLKSLRSAR | 0.685 ± 0.017
SLGSTHRWPPVV | 0.6272 ± 0.0019

Sequence | protein stability index
SLKPHTCPPRPA | 0.57 ± 0.15
SLLAVITSFPLR | 0.687 ± 0.012
SLLGFAGSCLLG | 0.735 ± 0.1
SLLPLHPPLTLP | 0.674 ± 0.19
SLLPLSLLSSPF | 0.664 ± 0.0072
SLLSSSALTASP | 0.65 ± 0.043
SLLTQSPLLPPP | 0.777 ± 0.29
SLNLFFYVNPRF | 0.686 ± 0.06
SLPGAPSPPHPL | 0.744 ± 0.0095
SLPPFPLHSFPV | 0.694 ± 0.24
SLPPPPSPVSLF | 0.611 ± 0.07
SLPPPRSLSFPF | 0.673 ± 0.011
SLPRPPVPLLPS | 0.707 ± 0.017
SLPRYPRRASHS | 0.757 ± 0.068
SLPTPPLFPSFP | 0.731 ± 0.014
SLQGLLSIVNYR | 0.78 ± 0.15
SLQRLALLRGPP | 0.736 ± 0.05
SLREEATLVRAR | 0.563 ± 0.019
SLRMTVFTAPLS | 0.654 ± 0.007
SLSDGGPSCPGV | 0.677 ± 0.032
SLSFPPNTFSFP | 0.738 ± 0.059
SLSFTFPLAPLL | 0.643 ± 0.12
SLSLSFVLSSCS | 0.721 ± 0.014

Sequence | protein stability index
SLSPLPCTVLRL | 0.684 ± 0.05
SLSPWRLPIGGR | 0.734 ± 0.035
SLSQWTSPGLNI | 0.708 ± 0.091
SLSSVAYAIIIL | 0.561 ± 0.021
SLTYSDGCTKSI | 0.742 ± 0.043
SLVLFRSCSFFS | 0.669 ± 0.024
SLVLPIFRIVSF | 0.573 ± 0.039
SLWIKRSPVFSF | 0.563 ± 0.014
SLWTDGYIFVLE | 0.732 ± 0.016
SLYRKTLCMAYS | 0.558 ± 0.019
SMAFLNQRPGIL | 0.685 ± 0.017
SMGGDTFILFAV | 0.67 ± 0.023
SNAIKTEESKGE | 0.734 ± 0.023
SNCARGNREFYW | 0.733 ± 0.058
SNCRLCGFGYVE | 0.6966 ± 0.0062
SNLHCLQRGYSV | 0.725 ± 0.011
SNLLKQHKDLFL | 0.7162 ± 0.0027
SNRQDHACGGSA | 0.687 ± 0.11
SNTSRIQGGWLK | 0.699 ± 0.18
SPANLGFKHSGR | 0.674 ± 0.021
SPAPALFCPARF | 0.739 ± 0.022
SPAPPPPVTPPL | 0.662 ± 0.013
SPAPRPSPVPGL | 0.686 ± 0.015

Sequence | protein stability index
SPARLHLPPFSP | 0.717 ± 0.016
SPASPNALPAAP | 0.741 ± 0.046
SPCMLLAVPHRL | 0.728 ± 0.044
SPCTSPARLKLP | 0.559 ± 0.063
SPEGYLLSPRCT | 0.737 ± 0.049
SPFLFPRTVVGA | 0.671 ± 0.11
SPFLPAHPPPTA | 0.714 ± 0.065
SPFLTPSSHPPS | 0.681 ± 0.03
SPGFSPPFPPLS | 0.776 ± 0.011
SPGLLPLALFSL | 0.678 ± 0.14
SPGPTLLSPPSP | 0.691 ± 0.017
SPGSSPPLLSPH | 0.761 ± 0.013
SPHPLPRPTTRP | 0.708 ± 0.12
SPHPPPSRLPPP | 0.709 ± 0.029
SPHPPPSSPPPP | 0.674 ± 0.097
SPHPTAPFVSTL | 0.68 ± 0.087
SPHVAPRKLQVS | 0.56147 ± 0.00038
SPLGAHPTRIVF | 0.6915 ± 0.00071
SPLHASLPPVSL | 0.704 ± 0.025
SPLISYQPPTDP | 0.725 ± 0.061
SPLLLSSPRPSP | 0.735 ± 0.062
SPLPLASPFGFP | 0.719 ± 0.033
SPLPPPPAPFLP | 0.6762 ± 0.0028

Sequence | protein stability index
SPLPPPTPLPLV | 0.8075 ± 0.0021
SPLPPSPPPLLF | 0.762 ± 0.17
SPLSDPPPYRPP | 0.591 ± 0.028
SPLTTFPPHRVS | 0.711 ± 0.014
SPPAPPLALPPP | 0.737 ± 0.057
SPPASFPLPPPP | 0.6802 ± 0.0015
SPPCPFPTPACP | 0.7165 ± 0.002
SPPCPLPLPPPP | 0.626 ± 0.057
SPPGPLPPRRPF | 0.725 ± 0.074
SPPHTGMLRLLT | 0.7 ± 0.063
SPPLPARSQSSI | 0.708 ± 0.029
SPPLPSPPTLRL | 0.701 ± 0.015
SPPLRPPAPLVL | 0.631 ± 0.14
SPPPAPPPPPQT | 0.66492 ± 0.00031
SPPPAPRPPLPP | 0.709 ± 0.041
SPPPFPHPHQLP | 0.726 ± 0.029
SPPPILPSSPSS | 0.698 ± 0.087
SPPPLDSFPFIT | 0.659 ± 0.051
SPPPLHPPPPAL | 0.637 ± 0.046
SPPPMPLPLIPL | 0.663 ± 0.066
SPPPPGPLPPPS | 0.718 ± 0.038
SPPPPILPCKPL | 0.716 ± 0.031
SPPPPPFCPLPA | 0.646 ± 0.014

Sequence | protein stability index
SPPPPPPSYPAH | 0.772 ± 0.051
SPPPPTLPPAYL | 0.6577 ± 0.0025
SPPPPTPPPPPA | 0.718 ± 0.045
SPPPSRHPPPRL | 0.708 ± 0.016
SPPRLPPLAAPP | 0.676 ± 0.07
SPPRPPRPPRRA | 0.599 ± 0.02
SPPRSPPDFVPF | 0.684 ± 0.0088
SPPRSVSVGVHK | 0.637 ± 0.03
SPPSPAFTPAPF | 0.669 ± 0.077
SPPTRAPISSIS | 0.733 ± 0.0087
SPPVRLPSASTV | 0.681 ± 0.036
SPPVTASLCLFS | 0.692 ± 0.016
SPRFVPPPAILR | 0.558 ± 0.0088
SPRFYSFRPSPP | 0.695 ± 0.019
SPRGLQSAPSGI | 0.7399 ± 0.0057
SPRPAPPRSTPP | 0.67 ± 0.063
SPSAVPPALLYS | 0.747 ± 0.2
SPSGLPLHFSFL | 0.704 ± 0.012
SPSLPPLPRSPR | 0.68 ± 0.053
SPSPPLPSPRPP | 0.594 ± 0.094
SPSRPILRPRVV | 0.635 ± 0.02
SPTPSPCIPSPP | 0.701 ± 0.0089
SPTRALYISFFY | 0.655 ± 0.075

Sequence | protein stability index
SPYLGSALPPDR | 0.628 ± 0.07
SQCGSLQIGRHL | 0.714 ± 0.052
SQLERSNHGWVR | 0.651 ± 0.064
SQMGRGRQRGDR | 0.741 ± 0.024
SQSPPTSPAPHD | 0.706 ± 0.016
SQTIRTGGLCHL | 0.886 ± 0.041
SQWGRVTMNLCG | 0.706 ± 0.012
SRAARLPLFYFD | 0.675 ± 0.014
SRCSAGVASGVL | 0.636 ± 0.0069
SRCSEPVGGGGA | 0.704 ± 0.085
SRGAIGGSACFR | 0.652 ± 0.037
SRGRILAVRNTT | 0.713 ± 0.021
SRGSTGERGRGK | 0.669 ± 0.027
SRIASKNRKRKR | 0.774 ± 0.024
SRKKDEGEYHRK | 0.68 ± 0.036
SRLPSPFPSPPL | 0.737 ± 0.019
SRLRITIRNVHS | 0.629 ± 0.048
SRPFLPPSPRPA | 0.757 ± 0.11
SRPLLLLPCLLP | 0.643 ± 0.014
SRPLPPPLPPPP | 0.628 ± 0.025
SRPPSPHPLPPP | 0.656 ± 0.027
SRRERALGQQPI | 0.679 ± 0.011

— the supplement of paper PMC10724198
